From patent US20200317768A1 (published 2020)

How the values were obtained:
[1] = target: T1, cynomolgus monkey FcγRIIa3 extracellular domain, His-tagged (cynomolgus monkey); assay: SPR; KD of SG1 divided by KD of the variant;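 note: relative to parent M103205H795-SG1 carrying the SG1 human heavy chain constant region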
T1 construct: also called cyno FcgRIIa3; cynoFcγRIIa3; not shown: His-tag added to the C-terminus
T1 chain: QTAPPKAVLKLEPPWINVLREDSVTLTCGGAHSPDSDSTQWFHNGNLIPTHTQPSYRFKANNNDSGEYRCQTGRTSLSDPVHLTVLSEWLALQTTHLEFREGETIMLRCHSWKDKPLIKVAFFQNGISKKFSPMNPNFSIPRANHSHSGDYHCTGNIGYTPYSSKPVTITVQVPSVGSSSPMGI
Protocol: (§1) Regarding such interactions, KD values were calculated using the following 1:1 binding model described in BIACORE® T100 Software Handbook BR1006-48 Edition AE.
(§2) The behavior of interacting molecules according to the 1:1 binding model on BIACORE® can be described by Equation 1: Req=C·R max/(KD+C)+RI, wherein, Req is a plot of steady-state binding levels to analyte concentration. C is concentration, RI is bulk refractive index contribution in the sample, and Rmax is analyte binding capacity of the surface. When this equation is rearranged, KD can be expressed as Equation 2: KD=C·Rmax/(Req−RI)−C. KD can be calculated by substituting the values of Rmax, RI, and C into Equation 1 or Equation 2. From the current measurement conditions, RI=0, C=2 μmol/L can be used.
(§3) The resultant variants were expressed using M103202L889-SK1 as light chain and their affinity to human and cynoFcγRs were evaluated (Table 21).

[2] = target: T2, human FcγRIIIaV extracellular domain, His-tagged (human, UniProt P08637 17-208); assay: SPR; KD of SG1 divided by KD of the variant;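 note: relative to parent M103205H795-SG1 carrying the SG1 human heavy chain constant region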
T2 construct: also called human FcgRIIIaV; not shown: His-tag added to the C-terminus
T2 sequence (P08637 17-208 F176V): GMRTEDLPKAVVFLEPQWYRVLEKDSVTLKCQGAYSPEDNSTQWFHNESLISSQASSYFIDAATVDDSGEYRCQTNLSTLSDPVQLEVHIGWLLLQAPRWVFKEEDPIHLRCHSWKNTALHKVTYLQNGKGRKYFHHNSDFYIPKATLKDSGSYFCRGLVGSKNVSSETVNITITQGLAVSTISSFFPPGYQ
Protocol: as §1, §2, §3

[3] = target: T3, human FcγRIIaR extracellular domain, His-tagged (human, UniProt P12318 34-217); assay: SPR; KD of SG1 divided by KD of the variant;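 note: relative to parent M103205H795-SG1 carrying the SG1 human heavy chain constant region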
T3 construct: also called human FcgRIIaR; FcγRIIa (type R); not shown: His-tag added to the C-terminus
T3 chain: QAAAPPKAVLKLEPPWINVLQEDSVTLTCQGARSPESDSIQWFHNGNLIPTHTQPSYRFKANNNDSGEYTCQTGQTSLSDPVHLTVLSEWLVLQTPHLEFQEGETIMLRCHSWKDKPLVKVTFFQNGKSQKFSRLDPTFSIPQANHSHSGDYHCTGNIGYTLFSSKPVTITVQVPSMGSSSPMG
Protocol: as §1, §2, §3

[4] = target: T4, human FcγRIIb extracellular domain, His-tagged (human, UniProt P31994 43-217); assay: SPR; KD of SG1 divided by KD of the variant;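 note: relative to parent M103205H795-SG1 carrying the SG1 human heavy chain constant region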
T4 construct: also called human FcgRIIb; not shown: His-tag added to the C-terminus
T4 sequence: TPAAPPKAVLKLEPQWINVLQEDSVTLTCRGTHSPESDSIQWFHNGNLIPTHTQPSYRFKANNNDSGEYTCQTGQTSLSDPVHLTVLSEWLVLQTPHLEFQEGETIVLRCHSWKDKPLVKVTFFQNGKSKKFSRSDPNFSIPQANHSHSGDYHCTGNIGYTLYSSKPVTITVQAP
Protocol: as §1, §2, §3

[5] = target: T5, cynomolgus monkey FcγRIIa1 extracellular domain, His-tagged (cynomolgus monkey); assay: SPR; KD of SG1 divided by KD of the variant
T5 construct: also called cyno FcgRIIa1; cynoFcγRIIa1; not shown: His-tag added to the C-terminus
T5 chain: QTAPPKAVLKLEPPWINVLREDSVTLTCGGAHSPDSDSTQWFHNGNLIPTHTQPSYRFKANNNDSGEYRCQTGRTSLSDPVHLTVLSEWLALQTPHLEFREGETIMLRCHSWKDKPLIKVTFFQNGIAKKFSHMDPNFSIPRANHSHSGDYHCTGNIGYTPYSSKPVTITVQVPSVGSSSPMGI
Protocol: as §1, §2, §3

[6] = target: T6, cynomolgus monkey FcγRIIIaS extracellular domain, His-tagged (cynomolgus monkey, UniProt A3RFZ7 21-206 (rhesus entry)); assay: SPR; KD of SG1 divided by KD of the variant
T6 construct: also called cyno FcgRIIIaS; cynoFcγRIIIaS; not shown: His-tag added to the C-terminus
T6 sequence (A3RFZ7 21-206): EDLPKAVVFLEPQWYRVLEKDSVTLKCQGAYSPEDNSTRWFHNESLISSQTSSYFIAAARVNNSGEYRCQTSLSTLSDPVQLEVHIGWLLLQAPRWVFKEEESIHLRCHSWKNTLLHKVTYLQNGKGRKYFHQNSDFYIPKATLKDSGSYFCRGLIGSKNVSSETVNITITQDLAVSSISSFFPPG
Protocol: as §1, §2, §3

[7] = target: T7, cynomolgus monkey FcγRIIb extracellular domain, His-tagged (cynomolgus monkey); assay: SPR (BIACORE), antibody captured, FcγR as analyte, 25°C
T7 construct: also called cyno FcgRIIb; cynoFcγRIIb; not shown: His-tag added to the C-terminus
T7 chain: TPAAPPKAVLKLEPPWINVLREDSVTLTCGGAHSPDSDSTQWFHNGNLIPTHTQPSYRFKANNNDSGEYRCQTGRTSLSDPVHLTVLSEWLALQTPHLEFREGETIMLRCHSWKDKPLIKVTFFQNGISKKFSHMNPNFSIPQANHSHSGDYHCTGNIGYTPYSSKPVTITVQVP
Protocol: (§4) The kinetic analysis of interactions between these antibodies and FcγR was carried out using BIACORE® T200 or BIACORE® 4000 (GE Healthcare). HBS-EP+ (GE Healthcare) was used as the running buffer, and the measurement temperature was set to 25° C. A chip produced by immobilizing Protein A. Protein A/G or mouse anti-human IgG kappa light chain (BD Biosciences) onto a Series S Sensor Chip CM4 or CM5 (GE Healthcare) by the amine-coupling method was used. […] After the measurement, the antibody captured on the chip was washed off by allowing reaction with 10 mM glycine-HCl, pH1.5 and 25 mM NaOH so that the chip was regenerated and used repeatedly. The sensorgrams obtained as measurement results were analyzed by the 1:1 Langmuir binding model using the BIACORE® Evaluation Software to calculate the binding rate constant ka (L/mol/s) and dissociation rate constant kd (l/s), and the dissociation constant KD (mol/L) was calculated from these values. […] Regarding such interactions, KD values were calculated using the following 1:1 binding model described in BIACORE® T100 Software Handbook BR1006-48 Edition AE.
as §2

[8] = target: T8, cynomolgus monkey FcγRIIa2 extracellular domain, His-tagged (cynomolgus monkey); assay: as above
T8 construct: also called cyno FcgRIIa2; cynoFcγRIIa2; not shown: His-tag added to the C-terminus
T8 chain: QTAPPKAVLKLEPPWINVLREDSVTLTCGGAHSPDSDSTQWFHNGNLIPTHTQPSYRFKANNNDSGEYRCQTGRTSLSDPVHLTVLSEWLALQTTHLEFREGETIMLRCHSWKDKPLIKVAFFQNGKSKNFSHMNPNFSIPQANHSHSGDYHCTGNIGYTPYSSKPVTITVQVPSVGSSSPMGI
Protocol: as §4, §2

[9] = target: T5, cynomolgus monkey FcγRIIa1 …; assay: as above
Protocol: as §4, §2

B1: MS1032LO06-SG1 (M103205H795-SG1/M103202L889-SK1) (antibody, human IgG1, kappa)
heavy: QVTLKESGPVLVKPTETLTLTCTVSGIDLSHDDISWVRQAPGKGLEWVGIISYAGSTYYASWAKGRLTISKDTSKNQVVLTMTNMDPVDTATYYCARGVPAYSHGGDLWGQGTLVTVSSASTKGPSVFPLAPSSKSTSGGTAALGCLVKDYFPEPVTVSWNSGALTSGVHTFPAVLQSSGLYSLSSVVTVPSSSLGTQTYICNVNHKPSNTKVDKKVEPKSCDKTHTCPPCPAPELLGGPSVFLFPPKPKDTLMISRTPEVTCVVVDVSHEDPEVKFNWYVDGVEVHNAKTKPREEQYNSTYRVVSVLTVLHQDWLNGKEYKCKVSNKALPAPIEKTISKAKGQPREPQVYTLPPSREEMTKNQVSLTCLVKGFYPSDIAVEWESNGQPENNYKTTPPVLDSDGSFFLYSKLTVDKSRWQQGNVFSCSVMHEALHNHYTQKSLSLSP
light: DIVMTQSPATLSLSPGERATLSCTSSQSVYHANWLSWFQQKPGQPPKLLIYWASTLAYGVPSRFSGSGSGTDFTLTISSLQPEDAATYYCAGGYGGGRYAFGQGTKVEIKRTVAAPSVFIFPPSDEQLKSGTASVVCLLNNFYPREAKVQWKVDNALQSGNSQESVTEQDSKDSTYSLSSTLTLSKADYEKHKVYACEVTHQGLSSPVTKSFNRGEC
notes: Anti-latent myostatin antibody; Parent of the Fc variants; copies: 2 + 2
KD fold (SG1 = 1) [1]: 1 fold
KD fold (SG1 = 1) [2]: 1 fold
KD fold (SG1 = 1) [3]: 1 fold
KD fold (SG1 = 1) [4]: 1 fold
KD fold (SG1 = 1) [5]: 1 fold
KD fold (SG1 = 1) [6]: 1 fold
Kd [7]: 1800 nM
Kd [8]: 5100 nM
Kd [9]: 3200 nM

B2: M103205H795-MY261/M103202L889-SK1 (antibody, human IgG1, kappa)
heavy: QVTLKESGPVLVKPTETLTLTCTVSGIDLSHDDISWVRQAPGKGLEWVGIISYAGSTYYASWAKGRLTISKDTSKNQVVLTMTNMDPVDTATYYCARGVPAYSHGGDLWGQGTLVTVSSASTKGPSVFPLAPSSKSTSGGTAALGCLVKDYFPEPVTVSWNSGALTSGVHTFPAVLQSSGLYSLSSVVTVPSSSLGTQTYICNVNHKPSNTKVDKKVEPKSCDKTHTCPPCPAPELLHGPSVFLFPPKPKDTLMISRTPEVTCVVVDVSDEDPEVKFNWYVDGVEVHNAKTKPREEQYNSTYRVVSVLTVLHQDWLNGKEYKCKVSNKALPKPIEKTISKAKGQPREPQVYTLPPSREEMTKNQVSLTCLVKGFYPSDIAVEWESNGQPENNYKTTPPVLDSDGSFFLYSKLTVDKSRWQQGNVFSCSVMHEALHNHYTQKSLSLSP
light: DIVMTQSPATLSLSPGERATLSCTSSQSVYHANWLSWFQQKPGQPPKLLIYWASTLAYGVPSRFSGSGSGTDFTLTISSLQPEDAATYYCAGGYGGGRYAFGQGTKVEIKRTVAAPSVFIFPPSDEQLKSGTASVVCLLNNFYPREAKVQWKVDNALQSGNSQESVTEQDSKDSTYSLSSTLTLSKADYEKHKVYACEVTHQGLSSPVTKSFNRGEC
notes: copies: 2 + 2
KD fold (SG1 = 1) [1]: 3.1 fold
KD fold (SG1 = 1) [2]: 0.07 fold
KD fold (SG1 = 1) [3]: 1 fold
KD fold (SG1 = 1) [4]: 0.9 fold
KD fold (SG1 = 1) [5]: 0.9 fold
KD fold (SG1 = 1) [6]: 0.15 fold
Kd [7]: 1500 nM
Kd [8]: 4000 nM
Kd [9]: 3700 nM

B3: M103205H795-MY201/M103202L889-SK1 (antibody, human IgG1, kappa)
heavy: QVTLKESGPVLVKPTETLTLTCTVSGIDLSHDDISWVRQAPGKGLEWVGIISYAGSTYYASWAKGRLTISKDTSKNQVVLTMTNMDPVDTATYYCARGVPAYSHGGDLWGQGTLVTVSSASTKGPSVFPLAPSSKSTSGGTAALGCLVKDYFPEPVTVSWNSGALTSGVHTFPAVLQSSGLYSLSSVVTVPSSSLGTQTYICNVNHKPSNTKVDKKVEPKSCDKTHTCPPCPAPELLNGPSVFLFPPKPKDTLMISRTPEVTCVVVDVSDEDPEVKFNWYVDGVEVHNAKTKPREEQYNSTYRVVSVLTVLHQDWLNGKEYKCKVSNKALPKPIEKTISKAKGQPREPQVYTLPPSREEMTKNQVSLTCLVKGFYPSDIAVEWESNGQPENNYKTTPPVLDSDGSFFLYSKLTVDKSRWQQGNVFSCSVMHEALHNHYTQKSLSLSP
light: DIVMTQSPATLSLSPGERATLSCTSSQSVYHANWLSWFQQKPGQPPKLLIYWASTLAYGVPSRFSGSGSGTDFTLTISSLQPEDAATYYCAGGYGGGRYAFGQGTKVEIKRTVAAPSVFIFPPSDEQLKSGTASVVCLLNNFYPREAKVQWKVDNALQSGNSQESVTEQDSKDSTYSLSSTLTLSKADYEKHKVYACEVTHQGLSSPVTKSFNRGEC
notes: Fc variant G236N/H268D/A330K (EU numbering) of SG1; also called MS1032LO06-MY201; copies: 2 + 2
KD fold (SG1 = 1) [1]: 4.4 fold
KD fold (SG1 = 1) [2]: 0.03 fold
KD fold (SG1 = 1) [3]: 0.6 fold
KD fold (SG1 = 1) [4]: 4.2 fold
KD fold (SG1 = 1) [5]: 2.3 fold
KD fold (SG1 = 1) [6]: 0.06 fold
Kd [7]: 430 nM
Kd [8]: 1400 nM
Kd [9]: 1400 nM

B4: M103205H795-MY260/M103202L889-SK1 (antibody, human IgG1, kappa)
heavy: QVTLKESGPVLVKPTETLTLTCTVSGIDLSHDDISWVRQAPGKGLEWVGIISYAGSTYYASWAKGRLTISKDTSKNQVVLTMTNMDPVDTATYYCARGVPAYSHGGDLWGQGTLVTVSSASTKGPSVFPLAPSSKSTSGGTAALGCLVKDYFPEPVTVSWNSGALTSGVHTFPAVLQSSGLYSLSSVVTVPSSSLGTQTYICNVNHKPSNTKVDKKVEPKSCDKTHTCPPCPAPELLMGPSVFLFPPKPKDTLMISRTPEVTCVVVDVSDEDPEVKFNWYVDGVEVHNAKTKPREEQYNSTYRVVSVLTVLHQDWLNGKEYKCKVSNKALPKPIEKTISKAKGQPREPQVYTLPPSREEMTKNQVSLTCLVKGFYPSDIAVEWESNGQPENNYKTTPPVLDSDGSFFLYSKLTVDKSRWQQGNVFSCSVMHEALHNHYTQKSLSLSP
light: DIVMTQSPATLSLSPGERATLSCTSSQSVYHANWLSWFQQKPGQPPKLLIYWASTLAYGVPSRFSGSGSGTDFTLTISSLQPEDAATYYCAGGYGGGRYAFGQGTKVEIKRTVAAPSVFIFPPSDEQLKSGTASVVCLLNNFYPREAKVQWKVDNALQSGNSQESVTEQDSKDSTYSLSSTLTLSKADYEKHKVYACEVTHQGLSSPVTKSFNRGEC
notes: copies: 2 + 2
KD fold (SG1 = 1) [1]: 1.2 fold
KD fold (SG1 = 1) [2]: 0.27 fold
KD fold (SG1 = 1) [3]: 0.6 fold
KD fold (SG1 = 1) [4]: 0.8 fold
KD fold (SG1 = 1) [5]: 0.7 fold
KD fold (SG1 = 1) [6]: 0.55 fold
Kd [7]: 1600 nM
Kd [8]: 3700 nM
Kd [9]: 4500 nM
